Measured values as given in the supplement of paper PMC9112550, “Optimization of the antimicrobial peptide Bac7 by deep mutational scanning” (BMC Biology, 2022).

System: Escherichia coli TOP10
Test: shrunken log2 fold change of peptide-encoding DNA abundance (4.5 h post-induction vs induction); higher = less antimicrobial activity (less host growth inhibition)
Conditions: time post-induction: 4.5 h; library: site-saturation at positions 5, 18, 19, 20
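Note: peptides expressed intracellularly from a pBAD plasmid library in pooled LB shake-flask culture, induced with 0.3% L-arabinose, DNA abundance read by NGS, three biological replicates, DESeq2 with apeglm shrinkage.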

## RRIRNRPPRLPRPRPRPYGCPRP
  shrunken log2 fold change: -0.146

## RRIRERPPRLPRPRPRPNGHPRP
  shrunken log2 fold change: 0.0479

## RRIRLRPPRLPRPRPRPAAWPRP
  shrunken log2 fold change: 0.32

## RRIRRRPPRLPRPRPRPRKRPRP
  shrunken log2 fold change: 0.859

## RRIRFRPPRLPRPRPRPHNEPRP
  shrunken log2 fold change: -0.626

## RRIRRRPPRLPRPRPRPEDSPRP
  shrunken log2 fold change: 0.0554

## RRIRNRPPRLPRPRPRPMYVPRP
  shrunken log2 fold change: 0.0786

## RRIRSRPPRLPRPRPRPVCPPRP
  shrunken log2 fold change: 0.0554

## RRIRQRPPRLPRPRPRPLDCPRP
  shrunken log2 fold change: -0.221

## RRIRDRPPRLPRPRPRPERAPRP
  shrunken log2 fold change: 0.0972

## RRIRVRPPRLPRPRPRPTWTPRP
  shrunken log2 fold change: 0.221

## RRIRPRPPRLPRPRPRPIEWPRP
  shrunken log2 fold change: 0.015

## RRIRHRPPRLPRPRPRPHFDPRP
  shrunken log2 fold change: -0.107

## RRIRTRPPRLPRPRPRPFKYPRP
  shrunken log2 fold change: -0.114

## RRIRARPPRLPRPRPRPQWFPRP
  shrunken log2 fold change: 0.0925

## RRIRARPPRLPRPRPRPWDWPRP
  shrunken log2 fold change: 0.991

## RRIRCRPPRLPRPRPRPGKEPRP
  shrunken log2 fold change: -0.0657

## RRIRIRPPRLPRPRPRPKYHPRP
  shrunken log2 fold change: -0.532

## RRIRMRPPRLPRPRPRPPKSPRP
  shrunken log2 fold change: 0.478

## RRIRRRPPRLPRPRPRPFPGPRP
  shrunken log2 fold change: -0.143

## RRIRLRPPRLPRPRPRPHKGPRP
  shrunken log2 fold change: -0.0262

## RRIRNRPPRLPRPRPRPKTAPRP
  shrunken log2 fold change: -0.232

## RRIRLRPPRLPRPRPRPNCYPRP
  shrunken log2 fold change: -0.422

## RRIRVRPPRLPRPRPRPIMEPRP
  shrunken log2 fold change: 0.0384

## RRIRVRPPRLPRPRPRPFFHPRP
  shrunken log2 fold change: 0.145

## RRIRNRPPRLPRPRPRPSYAPRP
  shrunken log2 fold change: -0.387

## RRIRVRPPRLPRPRPRPHGDPRP
  shrunken log2 fold change: 0.00703

## RRIRGRPPRLPRPRPRPHGFPRP
  shrunken log2 fold change: 0.422

## RRIRARPPRLPRPRPRPTDYPRP
  shrunken log2 fold change: -0.0499

## RRIRQRPPRLPRPRPRPMNTPRP
  shrunken log2 fold change: 0.0106

## RRIRARPPRLPRPRPRPCLTPRP
  shrunken log2 fold change: 0.158

## RRIRKRPPRLPRPRPRPLFNPRP
  shrunken log2 fold change: 0.0323

## RRIRQRPPRLPRPRPRPDSKPRP
  shrunken log2 fold change: -0.146

## RRIRPRPPRLPRPRPRPCKGPRP
  shrunken log2 fold change: -0.252

## RRIRLRPPRLPRPRPRPNIIPRP
  shrunken log2 fold change: -0.313

## RRIRDRPPRLPRPRPRPRTMPRP
  shrunken log2 fold change: -0.0423

## RRIRQRPPRLPRPRPRPFVIPRP
  shrunken log2 fold change: -0.131

## RRIRFRPPRLPRPRPRPVSWPRP
  shrunken log2 fold change: 0.44

## RRIRPRPPRLPRPRPRPMQAPRP
  shrunken log2 fold change: -0.0135

## RRIRWRPPRLPRPRPRPERKPRP
  shrunken log2 fold change: -0.0287

## RRIRVRPPRLPRPRPRPLRQPRP
  shrunken log2 fold change: 0.395

## RRIRGRPPRLPRPRPRPFMRPRP
  shrunken log2 fold change: 0.567

## RRIRHRPPRLPRPRPRPLCHPRP
  shrunken log2 fold change: -0.44

## RRIRTRPPRLPRPRPRPDCAPRP
  shrunken log2 fold change: 0.719

## RRIRFRPPRLPRPRPRPEYCPRP
  shrunken log2 fold change: 0.0467

## RRIRCRPPRLPRPRPRPWCPPRP
  shrunken log2 fold change: -0.281

## RRIRHRPPRLPRPRPRPSYHPRP
  shrunken log2 fold change: -1.11

## RRIRLRPPRLPRPRPRPKYKPRP
  shrunken log2 fold change: -0.486

## RRIRERPPRLPRPRPRPFSRPRP
  shrunken log2 fold change: -0.0038

## RRIRNRPPRLPRPRPRPTDHPRP
  shrunken log2 fold change: -0.383

## RRIRQRPPRLPRPRPRPLGPPRP
  shrunken log2 fold change: 0.23

## RRIRLRPPRLPRPRPRPHQFPRP
  shrunken log2 fold change: 0.0562

## RRIRFRPPRLPRPRPRPVLCPRP
  shrunken log2 fold change: -0.221

## RRIRFRPPRLPRPRPRPVVNPRP
  shrunken log2 fold change: -0.026

## RRIRDRPPRLPRPRPRPPDMPRP
  shrunken log2 fold change: 0.123

## RRIRGRPPRLPRPRPRPGDPPRP
  shrunken log2 fold change: 0.779

## RRIRVRPPRLPRPRPRPHRAPRP
  shrunken log2 fold change: 0.101

## RRIRARPPRLPRPRPRPQINPRP
  shrunken log2 fold change: -0.0458

## RRIRSRPPRLPRPRPRPKHLPRP
  shrunken log2 fold change: -0.466

## RRIRKRPPRLPRPRPRPDAPPRP
  shrunken log2 fold change: 1.46

## RRIRARPPRLPRPRPRPTHAPRP
  shrunken log2 fold change: 0.528

## RRIRTRPPRLPRPRPRPLNMPRP
  shrunken log2 fold change: 0.00244

## RRIRYRPPRLPRPRPRPTIAPRP
  shrunken log2 fold change: -0.338

## RRIRGRPPRLPRPRPRPIIAPRP
  shrunken log2 fold change: 0.571

## RRIRARPPRLPRPRPRPLLDPRP
  shrunken log2 fold change: 0.788

## RRIRMRPPRLPRPRPRPANEPRP
  shrunken log2 fold change: 0.182

## RRIRYRPPRLPRPRPRPDLKPRP
  shrunken log2 fold change: -0.21

## RRIRNRPPRLPRPRPRPPFGPRP
  shrunken log2 fold change: 0.291

## RRIRCRPPRLPRPRPRPEDIPRP
  shrunken log2 fold change: -0.12

## RRIRQRPPRLPRPRPRPSNCPRP
  shrunken log2 fold change: -0.136

## RRIRWRPPRLPRPRPRPGQIPRP
  shrunken log2 fold change: -0.0275

## RRIRERPPRLPRPRPRPTNAPRP
  shrunken log2 fold change: -0.0659

## RRIRARPPRLPRPRPRPIKFPRP
  shrunken log2 fold change: -0.126

## RRIRYRPPRLPRPRPRPMYCPRP
  shrunken log2 fold change: -0.00674

## RRIRLRPPRLPRPRPRPQLCPRP
  shrunken log2 fold change: 0.118

## RRIRPRPPRLPRPRPRPLLTPRP
  shrunken log2 fold change: 0.252

## RRIRRRPPRLPRPRPRPKFVPRP
  shrunken log2 fold change: -0.151

## RRIRVRPPRLPRPRPRPWLEPRP
  shrunken log2 fold change: 0.147

## RRIRSRPPRLPRPRPRPPWLPRP
  shrunken log2 fold change: 0.462

## RRIRLRPPRLPRPRPRPFFTPRP
  shrunken log2 fold change: -0.144

## RRIRTRPPRLPRPRPRPPRLPRP
  shrunken log2 fold change: 0.343

## RRIRRRPPRLPRPRPRPMVRPRP
  shrunken log2 fold change: 0.276

## RRIRVRPPRLPRPRPRPGCKPRP
  shrunken log2 fold change: 0.32

## RRIRQRPPRLPRPRPRPGDLPRP
  shrunken log2 fold change: 0.01

## RRIRQRPPRLPRPRPRPYFQPRP
  shrunken log2 fold change: -0.428

## RRIRFRPPRLPRPRPRPNNWPRP
  shrunken log2 fold change: -0.369

## RRIRARPPRLPRPRPRPVMHPRP
  shrunken log2 fold change: 0.191

## RRIRFRPPRLPRPRPRPADCPRP
  shrunken log2 fold change: -0.282

## RRIRRRPPRLPRPRPRPNASPRP
  shrunken log2 fold change: -0.0114

## RRIRMRPPRLPRPRPRPYVWPRP
  shrunken log2 fold change: -0.0956

## RRIRVRPPRLPRPRPRPRWCPRP
  shrunken log2 fold change: 0.295

## RRIRWRPPRLPRPRPRPVYIPRP
  shrunken log2 fold change: -0.0308

## RRIRYRPPRLPRPRPRPNKNPRP
  shrunken log2 fold change: -0.935

## RRIRLRPPRLPRPRPRPSGVPRP
  shrunken log2 fold change: -0.0863

## RRIRNRPPRLPRPRPRPVAIPRP
  shrunken log2 fold change: -0.507

## RRIRGRPPRLPRPRPRPTCTPRP
  shrunken log2 fold change: 0.975

## RRIRLRPPRLPRPRPRPPWWPRP
  shrunken log2 fold change: 0.695

## RRIRWRPPRLPRPRPRPCAPPRP
  shrunken log2 fold change: -0.0663

## RRIRARPPRLPRPRPRPICRPRP
  shrunken log2 fold change: 0.349

## RRIRKRPPRLPRPRPRPHQHPRP
  shrunken log2 fold change: 0.213

## RRIRHRPPRLPRPRPRPTNWPRP
  shrunken log2 fold change: 0.0467

## RRIRDRPPRLPRPRPRPGMQPRP
  shrunken log2 fold change: 0.165

## RRIRFRPPRLPRPRPRPSHDPRP
  shrunken log2 fold change: -0.142

## RRIRHRPPRLPRPRPRPYVIPRP
  shrunken log2 fold change: -0.00839

## RRIRCRPPRLPRPRPRPVEVPRP
  shrunken log2 fold change: -0.0243

## RRIRDRPPRLPRPRPRPTSNPRP
  shrunken log2 fold change: 0.24

## RRIRNRPPRLPRPRPRPMEQPRP
  shrunken log2 fold change: -0.208

## RRIRCRPPRLPRPRPRPGPEPRP
  shrunken log2 fold change: 0.473

## RRIRIRPPRLPRPRPRPLGVPRP
  shrunken log2 fold change: -0.0767

## RRIRDRPPRLPRPRPRPELCPRP
  shrunken log2 fold change: -0.0337

## RRIRARPPRLPRPRPRPPWIPRP
  shrunken log2 fold change: 0.38

## RRIRARPPRLPRPRPRPTTDPRP
  shrunken log2 fold change: 0.745

## RRIRFRPPRLPRPRPRPHCFPRP
  shrunken log2 fold change: -0.0267

## RRIRLRPPRLPRPRPRPTNCPRP
  shrunken log2 fold change: -0.0927

## RRIRKRPPRLPRPRPRPMDTPRP
  shrunken log2 fold change: 0.336

## RRIRIRPPRLPRPRPRPNYAPRP
  shrunken log2 fold change: -0.381

## RRIRDRPPRLPRPRPRPVPWPRP
  shrunken log2 fold change: 0.189

## RRIRSRPPRLPRPRPRPHQLPRP
  shrunken log2 fold change: -0.201

## RRIRRRPPRLPRPRPRPIQDPRP
  shrunken log2 fold change: 2.65

## RRIRGRPPRLPRPRPRPTFNPRP
  shrunken log2 fold change: 0.31

## RRIRRRPPRLPRPRPRPQGSPRP
  shrunken log2 fold change: 0.0234

## RRIRPRPPRLPRPRPRPEFWPRP
  shrunken log2 fold change: 0.583

## RRIRRRPPRLPRPRPRPIGHPRP
  shrunken log2 fold change: 0.113

## RRIRMRPPRLPRPRPRPQPTPRP
  shrunken log2 fold change: 0.868

## RRIRWRPPRLPRPRPRPQRHPRP
  shrunken log2 fold change: 0.163

## RRIRNRPPRLPRPRPRPQVHPRP
  shrunken log2 fold change: -0.161

## RRIRIRPPRLPRPRPRPSHHPRP
  shrunken log2 fold change: -0.941

## RRIRVRPPRLPRPRPRPSVGPRP
  shrunken log2 fold change: -0.659

## RRIRMRPPRLPRPRPRPSFGPRP
  shrunken log2 fold change: 0.0121

## RRIRNRPPRLPRPRPRPVRGPRP
  shrunken log2 fold change: 0.649

## RRIRQRPPRLPRPRPRPKQWPRP
  shrunken log2 fold change: 0.293

## RRIRNRPPRLPRPRPRPLGMPRP
  shrunken log2 fold change: -0.109

## RRIRWRPPRLPRPRPRPGIFPRP
  shrunken log2 fold change: 0.0995

## RRIRRRPPRLPRPRPRPGFAPRP
  shrunken log2 fold change: 0.315

## RRIRYRPPRLPRPRPRPDYDPRP
  shrunken log2 fold change: -0.476

## RRIRIRPPRLPRPRPRPTGYPRP
  shrunken log2 fold change: -0.73

## RRIRTRPPRLPRPRPRPYWFPRP
  shrunken log2 fold change: -0.535

## RRIRDRPPRLPRPRPRPYHQPRP
  shrunken log2 fold change: -0.0205

## RRIRIRPPRLPRPRPRPCQNPRP
  shrunken log2 fold change: -0.282

## RRIRFRPPRLPRPRPRPDTIPRP
  shrunken log2 fold change: -0.498

## RRIRTRPPRLPRPRPRPMICPRP
  shrunken log2 fold change: -0.0677

## RRIRFRPPRLPRPRPRPIRCPRP
  shrunken log2 fold change: 0.0461

## RRIRRRPPRLPRPRPRPVFLPRP
  shrunken log2 fold change: 0.0173

## RRIRLRPPRLPRPRPRPRDGPRP
  shrunken log2 fold change: 1.06

## RRIRYRPPRLPRPRPRPKTPPRP
  shrunken log2 fold change: 0.103

## RRIRDRPPRLPRPRPRPQEHPRP
  shrunken log2 fold change: -0.0802

## RRIRVRPPRLPRPRPRPVVSPRP
  shrunken log2 fold change: 0.0132

## RRIRERPPRLPRPRPRPEMNPRP
  shrunken log2 fold change: 0.0387

## RRIRRRPPRLPRPRPRPNYFPRP
  shrunken log2 fold change: -0.323

## RRIRIRPPRLPRPRPRPDFEPRP
  shrunken log2 fold change: -0.39
